The subject of series [1] is Patient F (celiac disease). In words: hyposensitisation of a celiac disease patient with open TG2. It counts as in vivo, human. As to conditions: subcutaneous, 6 months weekly rising doses, then monthly 1.5 years; then 1 g gluten per day. From the text: Patient F suffered from celiac disease and has been on gluten free diet for 8 years. […] Patient F has been injected subcutaneously a solution containing open TG2, which has been produced according to example 1. Injections have been repeated weekly over a period of six months; the doses have been increased over this period in order to reach the maintenance dose. The application has then been repeated applying the maintenance dose once a month for 1.5 years. Patient F was kept on a strict gluten free diet for this whole hyposensitisation therapy period. Later-on the patient started to consume minor amounts (1 g per day) of gluten in addition to the gluten free diet.

A short description of series [2]: enzymatic activity of truncated tissue transglutaminases. Format: biochemical. The source says:
Tissue transglutaminase fragments were produced recombinantly in E. coli as deletion mutants lacking C-terminal amino acids from positions S538 and E447 according to example 1 an methods known to persons skilled in the art. The resulting truncated tissue transglutaminases still were enzymatically active, although the activity was reduced to 5 and 1% respectively compared to the full length enzyme. Transglutaminase 6 fragment lacking the C-terminal amino acids from position G594 was produced accordingly.

B1: open TG2: recombinant TG2 stabilized in its open form by reaction with the inhibitor Z-PIMen(OEt)-QPL-OMe (protein, UniProt P21980 2-687, looked up)
Protein-glutamine …: AEELVLERCDLELETNGRDHHTADLCREKLVVRRGQPFWLTLHFEGRNYEASVDSLTFSVVTGPAPSQEAGTKARFPLRDAVEEGDWTATVVDQQDCTLSLQLTTPANAPIGLYRLSLEASTGYQGSSFVLGHFILLFNAWCPADAVYLDSEEERQEYVLTQQGFIYQGSAKFIKNIPWNFGQFEDGILDICLILLDVNPKFLKNAGRDCSRRSSPVYVGRVVSGMVNCNDDQGVLLGRWDNNYGDGVSPMSWIGSVDILRRWKNHGCQRVKYGQCWVFAAVACTVLRCLGIPTRVVTNYNSAHDQNSNLLIEYFRNEFGEIQGDKSEMIWNFHCWVESWMTRPDLQPGYEGWQALDPTPQEKSEGTYCCGPVPVRAIKEGDLSTKYDAPFVFAEVNADVVDWIQQDDGSVHKSINRSLIVGLKISTKSVGRDEREDITHTYKYPEGSSEEREAFTRANHLNKLAEKEETGMAMRIRVGQSMNMGSDFDVFAHITNNTAEEYVCRLLLCARTVSYNGILGPECGTKYLLNLNLEPFSEKSVPLCILYEKYRDCLTESNLIKVRALLVEPVINSYLLAERDLYLENPEIKIRILGEPKQKRKLVAEVSLQNPLPVALEGCTFTVEGAGLTEEQKTVEIPDPVEAGEEVKVRMDLLPLHMGLHKLVVNFESDKLKAVKGFRNVIIGPA
modifications: Z-PIMen(OEt)-QPL-OMe inhibitor adduct
As for B1, the “celiac disease symptoms after hyposensitisation therapy” value in series [1] is recorded as “No celiac disease symptoms could be measured clinically or by biopsy or serology”.

B2: TG2 ΔE447: tissue transglutaminase deletion mutant lacking C-terminal amino acids from position E447 (protein, UniProt P21980 1-446, looked up, fragment)
chain: MAEELVLERCDLELETNGRDHHTADLCREKLVVRRGQPFWLTLHFEGRNYEASVDSLTFSVVTGPAPSQEAGTKARFPLRDAVEEGDWTATVVDQQDCTLSLQLTTPANAPIGLYRLSLEASTGYQGSSFVLGHFILLFNAWCPADAVYLDSEEERQEYVLTQQGFIYQGSAKFIKNIPWNFGQFEDGILDICLILLDVNPKFLKNAGRDCSRRSSPVYVGRVVSGMVNCNDDQGVLLGRWDNNYGDGVSPMSWIGSVDILRRWKNHGCQRVKYGQCWVFAAVACTVLRCLGIPTRVVTNYNSAHDQNSNLLIEYFRNEFGEIQGDKSEMIWNFHCWVESWMTRPDLQPGYEGWQALDPTPQEKSEGTYCCGPVPVRAIKEGDLSTKYDAPFVFAEVNADVVDWIQQDDGSVHKSINRSLIVGLKISTKSVGRDEREDITHTYKYP
Consider B2, for which the “enzymatic activity compared to the full length enzyme” value in series [2] is recorded as 1%.

B3: TG2 ΔS538: tissue transglutaminase deletion mutant lacking C-terminal amino acids from position S538 (protein, UniProt P21980 1-537, looked up, fragment)
chain: MAEELVLERCDLELETNGRDHHTADLCREKLVVRRGQPFWLTLHFEGRNYEASVDSLTFSVVTGPAPSQEAGTKARFPLRDAVEEGDWTATVVDQQDCTLSLQLTTPANAPIGLYRLSLEASTGYQGSSFVLGHFILLFNAWCPADAVYLDSEEERQEYVLTQQGFIYQGSAKFIKNIPWNFGQFEDGILDICLILLDVNPKFLKNAGRDCSRRSSPVYVGRVVSGMVNCNDDQGVLLGRWDNNYGDGVSPMSWIGSVDILRRWKNHGCQRVKYGQCWVFAAVACTVLRCLGIPTRVVTNYNSAHDQNSNLLIEYFRNEFGEIQGDKSEMIWNFHCWVESWMTRPDLQPGYEGWQALDPTPQEKSEGTYCCGPVPVRAIKEGDLSTKYDAPFVFAEVNADVVDWIQQDDGSVHKSINRSLIVGLKISTKSVGRDEREDITHTYKYPEGSSEEREAFTRANHLNKLAEKEETGMAMRIRVGQSMNMGSDFDVFAHITNNTAEEYVCRLLLCARTVSYNGILGPECGTKYLLNLNLEPF
Regarding B3, the “enzymatic activity compared to the full length enzyme” value in series [2] is 5%.
